{
  "source": "patent US20180094075A1",
  "about": "(Pfizer, published 2018)",
  "molecules": {"B1": {"name": "hu23 (humanized anti-PTK7 antibody) (antibody, V domains shown)", "VH": "QITLKESGPTLVKPTQTLTLTCTFSGFSLSTSNMGVGWIRQPPGKALEWLAHIWWDDDKYYSPSLKSRLTITKDTSKNQVVLTMTNMDPVDTATYYCVRSNYGYAWFAYWGQGTLVTVSS", "VL": "DIQMTQSPSSLSASVGDRVTITCKASQDIYPYLNWFQQKPGKAPKTLIYRTNRLLDGVPSRFSGSGSGTDFTFTISSLQPEDIATYYCLQYDEFPLTFGAGTKLEIKR"}},
  "key": {"[1]": {"target": "human PTK7 expressed on cells (cancer cell lines with endogenous PTK7; HEK293T-PTK7 over-expressing cells) (human) (UniProt Q13308)", "assay": "flow cytometry, U2OS cells, 10 µg/mL"}, "[2]": {"target": "human PTK7 expressed on cells (cancer cell lines with endogenous PTK7; HEK293T-PTK7 over-expressing cells) (human) (UniProt Q13308)", "assay": "flow cytometry, H661 cells, 10 µg/mL"}, "[3]": {"target": "human PTK7 expressed on cells (cancer cell lines with endogenous PTK7; HEK293T-PTK7 over-expressing cells) (human) (UniProt Q13308)", "assay": "flow cytometry, H446 cells, 10 µg/mL"}, "[4]": {"target": "T1, human PTK7 expressed on cells (cancer cell lines with endogenous PTK7; HEK293T-PTK7 over-expressing cells) (human, UniProt Q13308 31-1070)", "T1 sequence": "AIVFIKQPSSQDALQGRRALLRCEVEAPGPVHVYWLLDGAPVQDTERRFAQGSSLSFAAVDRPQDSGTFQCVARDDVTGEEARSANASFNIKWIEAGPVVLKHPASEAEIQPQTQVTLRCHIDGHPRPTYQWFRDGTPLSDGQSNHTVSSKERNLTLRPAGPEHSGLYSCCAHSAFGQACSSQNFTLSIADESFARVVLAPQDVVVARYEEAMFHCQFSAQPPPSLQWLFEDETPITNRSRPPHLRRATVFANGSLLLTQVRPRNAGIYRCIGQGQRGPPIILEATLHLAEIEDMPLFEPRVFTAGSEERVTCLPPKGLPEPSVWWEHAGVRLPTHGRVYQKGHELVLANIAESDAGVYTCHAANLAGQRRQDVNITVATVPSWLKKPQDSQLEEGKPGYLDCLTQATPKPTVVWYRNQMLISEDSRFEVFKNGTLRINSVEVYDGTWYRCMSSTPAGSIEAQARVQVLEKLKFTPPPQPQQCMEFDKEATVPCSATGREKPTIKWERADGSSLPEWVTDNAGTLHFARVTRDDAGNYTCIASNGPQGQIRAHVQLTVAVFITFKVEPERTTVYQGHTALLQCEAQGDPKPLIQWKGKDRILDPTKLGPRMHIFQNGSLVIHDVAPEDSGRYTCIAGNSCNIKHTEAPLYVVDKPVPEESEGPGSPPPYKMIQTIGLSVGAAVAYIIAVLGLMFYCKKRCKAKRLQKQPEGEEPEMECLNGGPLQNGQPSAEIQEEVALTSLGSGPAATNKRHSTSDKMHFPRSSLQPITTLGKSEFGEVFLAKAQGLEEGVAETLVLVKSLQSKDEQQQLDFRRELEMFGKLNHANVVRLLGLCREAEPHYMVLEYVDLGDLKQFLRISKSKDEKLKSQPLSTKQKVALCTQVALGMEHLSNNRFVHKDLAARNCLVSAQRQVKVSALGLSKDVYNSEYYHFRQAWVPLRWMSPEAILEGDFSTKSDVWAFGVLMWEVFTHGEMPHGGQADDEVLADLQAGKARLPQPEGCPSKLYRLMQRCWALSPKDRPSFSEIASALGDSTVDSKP", "assay": "cell-based or functional assay"}},
  "data": [
    {"molecule": "Control mAb (Table 7) (antibody)", "values": [
      {"measurement": "MFI", "setting": "[1]", "result": 5.3},
      {"measurement": "MFI", "setting": "[2]", "result": 4.2},
      {"measurement": "MFI", "setting": "[3]", "result": 11}
    ]},
    {"molecule": "B1", "values": [
      {"measurement": "IC50 of cell viability (MTS), antibody + saporin-conjugated anti-human Fab (Fab-ZAP), DMS114 cells", "setting": "[4]", "result": 0.0103, "unit": "µg/mL"},
      {"measurement": "IC50 of cell viability (MTS), antibody + saporin-conjugated anti-human Fab (Fab-ZAP), H446 cells", "setting": "[4]", "result": 0.0447, "unit": "µg/mL"}
    ]}
  ]
}
